From patent publication US7781394B2, “Methods for identifying anti-tumor and/or anti-angiogenesis drugs with deoxynucleoside 5′-monophosphate N-glycosidase as the target” (Institut Pasteur, priority 2006, dated 2010) come the findings set out here.

Substrate in the series: O=P(O)(O)OC[C@H]1O[C@@H](n2cnc3c(O)ncnc32)C[C@@H]1O
The series is described as follows: Kinetic parameters of His-RCL (wild-type) with dNMP substrates, initial velocity measurements. As to conditions: purine deoxynucleotides; 37.0 °C. It is filed as biochemical, rat.

Procedure: The enzyme activity was determined either spectrophotometrically by following one of the reaction products, hypoxanthine or deoxyribose 5-phosphate, or by HPLC separation and UV detection of the released nucleobase and the remaining substrate. a) dIMP was used as a substrate and the hypoxanthine released oxidized to uric acid by xanthine oxidase. […] The decrease in absorbance at 340 nm was followed on a Amersham Biosciences Ultrospec 3100 pro spectrophotometer, using a millimolar absorbance coefficient of 6.22. […] Initial velocity experiments were carried out at variable concentrations of the six deoxynucleoside 5'-monophosphate: dAMP, dCMP, dGMP, dIMP, dTMP and dUMP (Table 1).

B1: His-RCL (deoxynucleoside 5′-monophosphate N-glycosidase) (Rattus norvegicus) (protein)
chain: MAASGEQAPCSVYFCGSIRGGREDQALYARIVSRLRRYGKVLTEHVADAELEPLGEEAAGGDQFIHEQDLNWLQQADVVVAEVTQPSLGVGYELGRAVALGKPILCLFRPQSGRVLSAMIRGAADGSRFQVWDYAEGEVETMLDRYFEAYLPQKTASSSHPSA
notes: made in house; host or cells: E. coli Bli5 (BL21 (DE3) pDIA17), plasmid pET28aRcl
As to B1, the Km is 450 µM, the kcat is 0.0066 s⁻¹ and the kcat/Km came out at 14.7 M⁻¹ s⁻¹.
